In article PMC4575080, “Biophysical Studies on BEX3, the p75^NTR-Associated Cell Death Executor, Reveal a High-Order Oligomer with Partially Folded Regions” (PLoS ONE, 2015):

B1: Brain Expressed X-linked protein 3 (BEX3) (natural protein, UniProt Q9WTZ9 1-124, looked up)
chain: MANVHQENEEMEQPLQNGQEDRPVGGGEGHQPAANNNNNNHNHNHNHHRRGQARRLAPNFRWAIPNRQMNDGLGGDGDDMEMFMEEMREIRRKLRELQLRNCLRILMGELSNHHDHHDEFCLMP
notes: BEX3 (NADE), cDNA encoding 'the mature BEX3' in pET21d; UniProt Q9WTZ9 is printed in the introduction for BEX3; High-order oligomer in native buffer; also called NADE; p75NTR-associated cell death executor

Experiments:
[1] = biological target: the molecule itself; assay: SDS-PAGE (SDS-resistant oligomer); refolded BEX3 on SDS-PAGE, before and after addition of 4 or 7 M urea to the sample loading buffer
[2] = biological target: B1; assay: SPR; p75NTR DD (13 uM) amine-coupled to a CM5 chip (4,000 RU), Biacore X; BEX3 0.2-0.8 uM injected in Buffer A (25 mM MES pH 7.0, 150 mM NaCl, 6 mM beta-ME), 10 uL/min; global fit; apparent Kd = koff/kon; conditions: both partners purified

Binder	stoichiometry N [1]	Kd [2] [nM]
B1	2	–
death domain of p75NTR (amino acids 326 to 417) (domain or fragment, UniProt Q9Z0W1 326-417, looked up, neurotrophin receptor p75 (p75NTR), death domain, amino acids 326 to 417; UniProt Q9Z0W1 is printed in the introduction for p75NTR; For some experiments the His-tag was removed with TEV protease; also called p75NTR DD; His-p75NTR DD) TASGQALKGDGNLYSSLPLTKREEVEKLLNGDTWRHLAGELGYQPEHIDSFTHEACPVRALLASWGAQDSATLDALLAALRRIQRADIVESL	–	550
